Test results taken from article PMC6399351, “Cationic Intrinsically Disordered Antimicrobial Peptides (CIDAMPs) Represent a New Paradigm of Innate Defense with a Potential for Novel Anti-Infectives” (Scientific Reports, 2019).
Where two headings read alike, the source gives them in different places. Ends that are not written are not given here.

Columns and labels:
E. coli ATCC 11775 = experiment: CFU assay of antimicrobial activity; type: cell-based, Escherichia coli; conditions: 10 mM NaP
Description: (§1) All purified peptides and recombinant proteins were applied using a colony forming unit (CFU) assay in different media. Bacteria were grown to early log-phase in BHI, washed either with 10 mM Na-P, pH 7.4/1% TSB or pH 5.5/1% TSB, or pH 5.5 without TSB or BHI, and adjusted to a concentration of 10^4–10^5 colony forming units (CFU)/ml. For cell number control, 100 µl aliquots were diluted 1:10, 1:100 and 1:1000 and plated in duplicates on BHI agar plates. To 100 µl aliquots of the bacteria, suspended in the respective medium (10 mM Na-P buffer pH 7,0–7,4/ 1% (w/v) TSB; 10 mM Na-P buffer pH 5,5/ 1% (w/v) TSB; 10 mM Na-P buffer pH 7,0–7,4/ 1% (w/v) TSB pH 7,0–7,4/ 0,25% (w/v) glucose; 10 mM Na-P buffer pH 5,5/ 0,25% (w/v) glucose, respectively), 10 µl of a solution of the peptide or protein (two-fold dilutions, from 300 µg/ml or 150 µg/ml down to 19 ng/ml), dissolved in 0.01% (v/v) acetic acid, were added.
(§2) Then bacteria were incubated for 2 h at ambient temperature, if not otherwise stated. 10 µl of 0.01% (v/v) acetic acid, added to 100 µl aliquots of the bacteria in the respective medium, served as negative control. From each test, 1:10 and 1:100 dilutions were generated and plated as duplicates of 100 µl aliquots on BHI agar plates. After 16 h incubation at 37 °C, CFU were counted using a colony counter (Bio Kobe, Japan) and expressed as mean of the duplicate estimation to achieve a complete dose-response curve. All experiments were performed at serial dilutions in a concentration range of 100 µg/mL −25 ng/mL for recombinant HRNR fragments and 300 or 150 µg/mL–19 ng/mL for synthetic peptides.

C. albicans ATCC 24433 = experiment: CFU assay of antimicrobial activity; type: cell-based, Candida albicans; conditions: 10 mM NaP
Description: Bacteria were cultivated in either brain heart infusion medium (BHI), lysogeny broth (LB) or tryptic soy broth (TSB)[88]. If not otherwise stated, bacteria were incubated under shaking conditions (37 °C at 170 rpm) or as indicated on the ATCC- or DSM-data sheets. Candida albicans was cultured for 3 days on Yeast Extract-Peptone Dextrose (YPD) agar at 30 °C and yeast suspensions at appropriate density were treated with CIDAMPs as indicated.
as §1, §2

[1] = tested on: Streptococcus pneumoniae ATCC 33400; experiment: CFU assay of antimicrobial activity; type: cell-based; conditions: 10 mM NaP, pH 6.5, 0.25% glucose
Description: as §1, with “[…];” for “10 mM Na-P buffer pH 5,5/ 1% (w/v) TSB;”
as §2

[2] = tested on: Streptococcus pyogenes ATCC 12344; experiment: CFU assay of antimicrobial activity; type: cell-based; conditions: 10 mM NaP, pH 6.0, 0.25% glucose
Description: as §1, with “[…];” for “10 mM Na-P buffer pH 5,5/ 1% (w/v) TSB;”
as §2

[3] = tested on: Acinetobacter baumannii ATCC 19606; experiment: CO-ADD MIC, broth microdilution (CLSI); type: cell-based; conditions: Mueller–Hinton broth, 5 × 10^5 CFU/mL, 18 h 37 °C, by CO-ADD
Text: (§3) They were defined as the lowest peptide
(§4) Further details of the screening

[4] = tested on: Pseudomonas aeruginosa ATCC 27853; experiment: CO-ADD MIC, broth microdilution (CLSI); type: cell-based; conditions: Mueller–Hinton broth, 5 × 10^5 CFU/mL, 18 h 37 °C, by CO-ADD
Text: as §3, §4

[5] = tested on: Candida albicans ATCC 90028; experiment: CO-ADD MIC, antifungal assay (CLSI); type: cell-based; conditions: Yeast Nitrogen Base broth, 24 h 35 °C, by CO-ADD
Description: (§5) Fungi strains were cultured for 3 days on Yeast Extract-Peptone Dextrose (YPD) agar at 30 °C. A yeast suspension of 1 × 10^6 to 5 × 10^6 cells/mL (as determined by OD530) was prepared from five colonies. These stock suspensions were diluted with Yeast Nitrogen Base (YNB) broth to a final concentration of 2.5 × 10^3 CFU/mL. […] Plates were covered and incubated at 35 °C for 24 h without shaking.

[6] = tested on: Cryptococcus neoformans ATCC 208821; experiment: CO-ADD MIC, antifungal assay (CLSI); type: cell-based; conditions: Yeast Nitrogen Base broth, 24 h 35 °C, by CO-ADD
Description: as §5

E. coli ATCC 25922 = experiment: CO-ADD MIC, broth microdilution (CLSI); type: cell-based, Escherichia coli; conditions: Mueller–Hinton broth, 5 × 10^5 CFU/mL, 18 h 37 °C, by CO-ADD
Text: as §3, §4

P. aeruginosa ATCC 10145 = conditions: CFU assay
S. aureus ATCC 6538 = conditions: CFU assay, 10 mM NaP, pH 5.5, 0.25% glucose
[7] = tested on: Enterococcus faecium DSM 2146; conditions: CFU assay, 10 mM NaP, pH 5.5, 0.25% glucose
[8] = tested on: Acinetobacter baumannii ATCC 19606; conditions: CFU assay, 10 mM NaP, pH 6.0, 0.25% glucose
[9] = tested on: Proteus mirabilis ATCC 21100; conditions: CFU assay, 10 mM NaP, pH 6.0, 0.25% glucose
[10] = tested on: Burkholderia cepacia ATCC 25416; conditions: CFU assay, 10 mM NaP, pH 5.5, 0.25% glucose
[11] = tested on: Klebsiella pneumonia ATCC 700603; conditions: MDR strain; CLSI, Mueller–Hinton broth, 5 × 10^5 CFU/mL, 18 h 37 °C, by CO-ADD
[12] = tested on: Staphylococcus aureus ATCC 43300; conditions: MRSA; CLSI, Mueller–Hinton broth, 5 × 10^5 CFU/mL, 18 h 37 °C, by CO-ADD
trypsin = type: in vitro ADME; conditions: for digestion by trypsin: 500 ng, 0.7 nM protease, pH 7.5, 15 h, Western blot
Text: (§6) All data shown are representatives (n = 3).
(§7) Lane 16 (“without protease”)
(§8) Table 1) have been directly applied. Note the presence of multiple bands, which originate
(§9) from oligomeric HRNR-complexes12. Data shown are representatives (n=3).

α-chymotrypsin = tested on: T1, α-chymotrypsin; experiment: Protease sensitivity testing of HRNR; type: in vitro ADME, human; conditions: 10 µg, 18 h 37 °C, 1 ng to 1 pg, SDS-PAGE and HRNR Western blot, n = 3
T1 construct: purchased Sigma
Text: as §6

Lys-C = target: T2, Lys-C (Lysobacter enzymogenes, UniProt Q7M135); experiment: Protease sensitivity testing of HRNR; type: in vitro ADME; conditions: n = 3
T2 construct: purchased Roche
Text: as §6
Thereafter samples were subjected to a
Data shown are representatives
as §7, §8, §9

enterokinase EKMax = target: T3, enterokinase EKMax (Bos taurus, UniProt P98072); experiment: Protease sensitivity testing of HRNR; type: in vitro ADME; conditions: 10 µg, 18 h 37 °C, 0,1 U to 0,0001 U, SDS-PAGE and HRNR Western blot, n = 3
T3 construct: purchased Invitrogen
Text: as §6

thermolysin = thermolysin (Bacillus thermoproteolyticus, UniProt P00800); conditions: 10 µg, 18 h 37 °C, 10 ng to 10 pg, SDS-PAGE and HRNR Western blot, n = 3
collagenase = conditions: 1 µg, 1 h 37 °C, SDS-PAGE, silver staining; at higher concentrations, n = 3
KLK1 = target: T4, KLK1 (Homo sapiens, UniProt P06870); experiment: Protease sensitivity testing of HRNR; type: in vitro ADME; conditions: 500 ng, 0.7 nM protease, pH 7.5, 15 h, Western blot, n = 3
T4 construct: purchased R&D
Description: as §7
(§10) Table 1) have been directly applied. Note the presence of multiple bands, which originate from oligomeric HRNR-complexes12. Data shown are representatives (n=3).
(§11) Supplementary Fi gur e 14 :
(§12) For SDS-PAGE analyses 250 ng of […]
(§13) manner, however in the absence of a protease. […]
(§14) have been directly applied. Note a marked decrease of PAD1-deiminated rHRNR2591-2684 electromobility (lane 16) relative to rHRNR2591-2684 (lane 17). D ata shown are represent a tives

KLK7 = target: T5, KLK7 (Homo sapiens, UniProt P49862); experiment: Protease sensitivity testing of HRNR; type: in vitro ADME; conditions: 500 ng, 0.7 nM protease, pH 7.5, 15 h, Western blot, n = 3
T5 construct: purchased R&D
Description: as §7, §10, §11, §12, §13, §14

[13] = 10 mM NaP, pH 5.5, 0.25% glucose

T2 sequence (Q7M135 whole entry): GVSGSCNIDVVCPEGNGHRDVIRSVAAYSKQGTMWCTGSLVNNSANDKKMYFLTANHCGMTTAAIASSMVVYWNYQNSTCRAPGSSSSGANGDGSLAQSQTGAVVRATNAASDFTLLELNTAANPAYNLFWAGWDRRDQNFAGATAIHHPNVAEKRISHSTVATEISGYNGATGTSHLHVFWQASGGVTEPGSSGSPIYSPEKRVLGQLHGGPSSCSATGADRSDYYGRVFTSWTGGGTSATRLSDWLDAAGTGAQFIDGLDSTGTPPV
T5 sequence (P49862 30-253): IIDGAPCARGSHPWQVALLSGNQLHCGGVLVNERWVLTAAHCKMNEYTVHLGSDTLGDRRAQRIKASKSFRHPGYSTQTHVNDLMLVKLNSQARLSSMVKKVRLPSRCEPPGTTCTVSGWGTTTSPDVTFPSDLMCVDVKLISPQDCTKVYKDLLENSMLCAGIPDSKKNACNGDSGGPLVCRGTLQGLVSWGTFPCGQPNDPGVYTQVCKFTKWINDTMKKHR
T4 sequence (P06870 25-262): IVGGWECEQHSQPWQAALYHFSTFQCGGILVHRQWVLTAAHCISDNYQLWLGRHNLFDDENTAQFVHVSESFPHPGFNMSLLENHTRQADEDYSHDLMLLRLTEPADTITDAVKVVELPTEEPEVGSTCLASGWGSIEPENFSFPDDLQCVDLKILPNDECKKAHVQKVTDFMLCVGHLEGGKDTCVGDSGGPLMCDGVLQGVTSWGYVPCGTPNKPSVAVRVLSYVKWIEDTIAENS
Chain of thermolysin (P00800 233-548): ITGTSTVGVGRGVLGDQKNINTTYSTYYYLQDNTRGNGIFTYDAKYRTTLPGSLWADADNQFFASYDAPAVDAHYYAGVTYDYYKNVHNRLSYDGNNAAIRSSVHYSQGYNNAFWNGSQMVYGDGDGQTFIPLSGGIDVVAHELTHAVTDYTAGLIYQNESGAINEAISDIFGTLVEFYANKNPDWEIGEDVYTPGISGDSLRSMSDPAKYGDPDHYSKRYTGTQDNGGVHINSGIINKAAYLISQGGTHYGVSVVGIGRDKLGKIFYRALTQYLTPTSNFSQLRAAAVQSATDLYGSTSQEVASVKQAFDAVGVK
T3 sequence (P98072 801-1035 limits assumed): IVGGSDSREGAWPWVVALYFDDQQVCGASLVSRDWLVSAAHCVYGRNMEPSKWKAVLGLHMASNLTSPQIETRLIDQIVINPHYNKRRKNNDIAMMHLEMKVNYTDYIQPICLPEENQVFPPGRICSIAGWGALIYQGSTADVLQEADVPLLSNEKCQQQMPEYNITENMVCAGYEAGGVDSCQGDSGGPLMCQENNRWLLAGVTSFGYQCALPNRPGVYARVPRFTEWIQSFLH
T1 sequence (P17538 34-164 limits assumed, other chains not shown): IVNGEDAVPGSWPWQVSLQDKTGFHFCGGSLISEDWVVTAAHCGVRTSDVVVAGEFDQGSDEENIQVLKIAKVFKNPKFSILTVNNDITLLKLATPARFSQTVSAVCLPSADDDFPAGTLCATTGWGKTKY
T1 sequence (P17538 167-263 limits assumed, other chains not shown): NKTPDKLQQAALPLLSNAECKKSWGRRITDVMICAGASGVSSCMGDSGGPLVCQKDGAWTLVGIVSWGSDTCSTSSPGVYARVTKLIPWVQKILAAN

Molecule: GRHGSGLGHSSSHGQHGSGSGR [HR 1-18]
- LD90 (E. coli ATCC 11775; pH 5.5, 1% TSB): >300 µg/mL
- LD90 (C. albicans ATCC 24433; pH 5.5, 0.25% glucose): 18.8 µg/mL
- LD90 (C. albicans ATCC 24433; pH 5.5, 1% TSB): 150 µg/mL
- LD90 [1]: >300 µg/mL
- LD90 [2]: >300 µg/mL
- Minimal inhibitory concentration (MIC) [3]: >32 µg/mL
- Minimal inhibitory concentration (MIC) [4]: >32 µg/mL
- Minimal inhibitory concentration (MIC) [5]: >32 µg/mL
- Minimal inhibitory concentration (MIC) [6]: >32 µg/mL
- Minimal inhibitory concentration (MIC) (E. coli ATCC 25922): >32 µg/mL
- LD90 (P. aeruginosa ATCC 10145; [13]): 0.038 µg/mL
- LD90 (P. aeruginosa ATCC 10145; 10 mM NaP, pH 5.5, 1% TSB): 0.15 µg/mL
- LD90 (P. aeruginosa ATCC 10145; 10 mM NaP/0.25% glucose/pH 5.5, 1% TSB): 1.18 µg/mL
- LD90 (P. aeruginosa ATCC 10145; 10 mM NaP/0.25% glucose/pH 5.5, 3% TSB): 37.5 µg/mL
- LD90 (P. aeruginosa ATCC 10145; 10 mM NaP/0.25% glucose/pH 5.5, 10% TSB): > 300 µg/mL
- LD90 (S. aureus ATCC 6538): >300 µg/mL
- LD90 [7]: 150 µg/mL
- LD90 [8]: 1.18 µg/mL
- LD90 [9]: >300 µg/mL
- LD90 [10]: >300 µg/mL
- Minimal inhibitory concentration (MIC) [11]: >32 µg/mL
- Minimal inhibitory concentration (MIC) [12]: >32 µg/mL

B1: rHRNR2576–2707: recombinant HRNR fragment (protein, UniProt Q86YZ3 2576-2707, looked up, fragment)
chain: GFGHHESSSGQSSSYSQHGSGSGHSSGYGQHGSRSGQSSRGERHGSSSGSSSHYGQHGSGSRQSSGHGRQGSGSGQSPSRGRHGSGLGHSSSHGQHGSGSGRSSSRGPYESRLGHSSVFGQHESGSGHSSAY
- LD90 (E. coli ATCC 11775; pH 5.5, 0.25% glucose): 0.55 µg/mL
- LD100 (E. coli ATCC 11775; pH 5.5, 0.25% glucose): >100 µg/mL
- LD90 (C. albicans ATCC 24433; pH 5.5, 0.25% glucose): 0.55 µg/mL
- LD100 (C. albicans ATCC 24433; pH 5.5, 0.25% glucose): >140 µg/mL
- sensitivity towards trypsin (trypsin; 10 µg, 18 h 37 °C, 100 pg to 0,1 pg trypsin (not modified), SDS-PAGE and HRNR Western blot, n = 3): highly sensitive
- amount of unmodified trypsin that digests (trypsin; 10 µg, 18 h 37 °C, SDS-PAGE and HRNR Western blot): 1 pg
- sensitivity towards α-chymotrypsin (α-chymotrypsin): highly sensitive
- sensitivity towards Lys-C (Lys-C; 10 µg, 18 h 37 °C, 10 ng to 10 pg, SDS-PAGE and HRNR Western blot): highly sensitive
- sensitivity towards enterokinase EKMax (enterokinase EKMax): highly sensitive
- LD90 (P. aeruginosa ATCC 10145; [13]): 0.035 µg/mL
- LD100 (P. aeruginosa ATCC 10145; [13]): 0.275 µg/mL
- sensitivity towards thermolysin (thermolysin): highly sensitive

B2: rHRNR2591–2684: recombinant HRNR fragment (protein, UniProt Q86YZ3 2591-2684, looked up, fragment)
chain: SQHGSGSGHSSGYGQHGSRSGQSSRGERHGSSSGSSSHYGQHGSGSRQSSGHGRQGSGSGQSPSRGRHGSGLGHSSSHGQHGSGSGRSSSRGPY
- LD90 (E. coli ATCC 11775; pH 5.5, 0.25% glucose): 0.2 µg/mL
- LD100 (E. coli ATCC 11775; pH 5.5, 0.25% glucose): >100 µg/mL
- LD90 (C. albicans ATCC 24433; pH 5.5, 0.25% glucose): 0.39 µg/mL
- LD100 (C. albicans ATCC 24433; pH 5.5, 0.25% glucose): 6.25 µg/mL
- digestion by trypsin (trypsin; n = 3): digest
- digestion by Lys C (Lys-C; 1 µg, 1 h 37 °C, SDS-PAGE, silver staining, at higher concentrations): sensitivity
- LD90 (P. aeruginosa ATCC 10145; [13]): 0.025 µg/mL
- LD100 (P. aeruginosa ATCC 10145; [13]): 0.1 µg/mL
- digestion by collagenase (collagenase): sensitivity

B3: PAD1-deiminated rHRNR2591-2684: Protein Arginine Deiminase 1 (PAD1)-deiminated rHRNR2591–2684, Arg citrullinated (protein, UniProt Q86YZ3 2591-2684, looked up, fragment)
chain: B2 chain
modifications: PAD1-deiminated, arginines citrullinated
notes: Protein Arginine Deiminase 1 (PAD1)-deiminated rHRNR2591–2684, Arg citrullinated
- digestion by trypsin (trypsin; n = 3): digest
- digestion by LysC (Lys-C; 500 ng, 0.7 nM protease, pH 7.5, 15 h, Western blot): digest
- digestion by KLK1 (KLK1): digest
- digestion by KLK7 (KLK7): digest
